For this data set, the system named is Escherichia coli TOP10. Description: shrunken log2 fold change of peptide-encoding DNA abundance (4.5 h post-induction vs induction); higher = less antimicrobial activity (less host growth inhibition). Particulars: time post-induction: 4.5 h; library: site-saturation at positions 5, 18, 19, 20.
As to RRIRLRPPRLPRPRPRPYTKPRP, the “shrunken log2 fold change” value worked out at 0.119.

Take RRIRYRPPRLPRPRPRPLFFPRP: the “shrunken log2 fold change” value is -0.751.

Consider RRIRYRPPRLPRPRPRPKCAPRP, for which the “shrunken log2 fold change” value was 0.0118.

Regarding RRIRIRPPRLPRPRPRPPKCPRP, the “shrunken log2 fold change” value is -0.101.

On to RRIRRRPPRLPRPRPRPHEPPRP, for which the “shrunken log2 fold change” value is -0.0636.

RRIRKRPPRLPRPRPRPENKPRP: the “shrunken log2 fold change” value was 0.528.

Consider RRIRARPPRLPRPRPRPRIPPRP, for which the “shrunken log2 fold change” value worked out at 0.0568.

Take RRIRWRPPRLPRPRPRPQWNPRP: the “shrunken log2 fold change” value is -0.156.

With RRIRIRPPRLPRPRPRPPDCPRP, the “shrunken log2 fold change” value was -0.0639.

Consider RRIRMRPPRLPRPRPRPQGYPRP, for which the “shrunken log2 fold change” value came out at 0.0234.

Turning to RRIRERPPRLPRPRPRPQMVPRP, the “shrunken log2 fold change” value was -0.0708.

In the case of RRIRPRPPRLPRPRPRPPWTPRP, the “shrunken log2 fold change” value came to 0.267.

For the sequence RRIRERPPRLPRPRPRPISEPRP, the “shrunken log2 fold change” value was -0.0562.

With RRIRLRPPRLPRPRPRPLPYPRP, the “shrunken log2 fold change” value was determined as 0.514.

With RRIRFRPPRLPRPRPRPWCIPRP, the “shrunken log2 fold change” value is -0.369.

As for RRIRTRPPRLPRPRPRPIMKPRP, the “shrunken log2 fold change” value is -0.253.

Consider RRIRTRPPRLPRPRPRPPAKPRP, for which the “shrunken log2 fold change” value was determined as 1.11.

For RRIRCRPPRLPRPRPRPSHQPRP, the “shrunken log2 fold change” value is -1.04.

For the sequence RRIRQRPPRLPRPRPRPFYGPRP, the “shrunken log2 fold change” value was -0.00903.

With RRIRVRPPRLPRPRPRPTGQPRP, the “shrunken log2 fold change” value was determined as 0.526.

Regarding RRIRNRPPRLPRPRPRPGIAPRP, the “shrunken log2 fold change” value stood at 0.0989.

As for RRIRMRPPRLPRPRPRPRMLPRP, the “shrunken log2 fold change” value worked out at 0.465.

Take RRIRCRPPRLPRPRPRPAGRPRP: the “shrunken log2 fold change” value came to 0.373.

For RRIRVRPPRLPRPRPRPINGPRP, the “shrunken log2 fold change” value was -0.17.

For RRIRIRPPRLPRPRPRPFYDPRP, the “shrunken log2 fold change” value is -0.202.

As to RRIRLRPPRLPRPRPRPYQCPRP, the “shrunken log2 fold change” value was -0.373.

RRIRFRPPRLPRPRPRPINLPRP: the “shrunken log2 fold change” value is -0.291.

For RRIRDRPPRLPRPRPRPIRCPRP, the “shrunken log2 fold change” value was -0.0116.

Consider RRIRNRPPRLPRPRPRPHKHPRP, for which the “shrunken log2 fold change” value is -0.719.

With RRIRMRPPRLPRPRPRPAAMPRP, the “shrunken log2 fold change” value is 0.915.

With RRIRHRPPRLPRPRPRPCFSPRP, the “shrunken log2 fold change” value worked out at 0.0626.

RRIRGRPPRLPRPRPRPGDCPRP: the “shrunken log2 fold change” value was 0.824.

On to RRIRRRPPRLPRPRPRPAVQPRP, for which the “shrunken log2 fold change” value stood at 0.0814.

For the sequence RRIRRRPPRLPRPRPRPVCFPRP, the “shrunken log2 fold change” value was determined as 0.383.

Turning to RRIRERPPRLPRPRPRPGKVPRP, the “shrunken log2 fold change” value amounted to 0.206.

As for RRIRWRPPRLPRPRPRPDAPPRP, the “shrunken log2 fold change” value was determined as 0.558.

With RRIRKRPPRLPRPRPRPWKFPRP, the “shrunken log2 fold change” value came out at 0.0297.

Consider RRIRVRPPRLPRPRPRPPQTPRP, for which the “shrunken log2 fold change” value is 0.0537.

Take RRIRGRPPRLPRPRPRPKCNPRP: the “shrunken log2 fold change” value was 0.541.

In the case of RRIRERPPRLPRPRPRPKYRPRP, the “shrunken log2 fold change” value is -0.00726.

Turning to RRIRVRPPRLPRPRPRPILNPRP, the “shrunken log2 fold change” value was -0.287.

As to RRIRDRPPRLPRPRPRPQNEPRP, the “shrunken log2 fold change” value is -0.24.

Consider RRIRKRPPRLPRPRPRPKIHPRP, for which the “shrunken log2 fold change” value was -0.152.

Take RRIRPRPPRLPRPRPRPDGGPRP: the “shrunken log2 fold change” value is -0.129.

RRIRMRPPRLPRPRPRPKKQPRP: the “shrunken log2 fold change” value amounted to 0.0673.

Take RRIRYRPPRLPRPRPRPPGCPRP: the “shrunken log2 fold change” value amounted to 0.334.

With RRIRNRPPRLPRPRPRPEVNPRP, the “shrunken log2 fold change” value is -0.0723.

In the case of RRIRGRPPRLPRPRPRPNCIPRP, the “shrunken log2 fold change” value is 0.247.

Turning to RRIRSRPPRLPRPRPRPTEKPRP, the “shrunken log2 fold change” value turned out to be 0.0802.

Take RRIRMRPPRLPRPRPRPACNPRP: the “shrunken log2 fold change” value was 0.39.

With RRIRWRPPRLPRPRPRPWPDPRP, the “shrunken log2 fold change” value was determined as 0.0849.

Turning to RRIRWRPPRLPRPRPRPDSDPRP, the “shrunken log2 fold change” value was 0.0473.

RRIRCRPPRLPRPRPRPERSPRP: the “shrunken log2 fold change” value was 0.0846.

For the sequence RRIRRRPPRLPRPRPRPFPWPRP, the “shrunken log2 fold change” value was -0.0263.

Turning to RRIRVRPPRLPRPRPRPMVLPRP, the “shrunken log2 fold change” value is -0.19.

In the case of RRIRHRPPRLPRPRPRPHFIPRP, the “shrunken log2 fold change” value was -0.499.

RRIRKRPPRLPRPRPRPISAPRP: the “shrunken log2 fold change” value came out at 0.164.

On to RRIRERPPRLPRPRPRPWCMPRP, for which the “shrunken log2 fold change” value was -0.533.

RRIRRRPPRLPRPRPRPDFEPRP: the “shrunken log2 fold change” value came out at 0.552.

Turning to RRIRFRPPRLPRPRPRPCDAPRP, the “shrunken log2 fold change” value was -0.312.

For the sequence RRIRWRPPRLPRPRPRPHGWPRP, the “shrunken log2 fold change” value stood at 0.213.

Consider RRIRNRPPRLPRPRPRPFFVPRP, for which the “shrunken log2 fold change” value was found to be 0.126.

For the sequence RRIRWRPPRLPRPRPRPENVPRP, the “shrunken log2 fold change” value turned out to be 0.0417.

Regarding RRIRHRPPRLPRPRPRPHYCPRP, the “shrunken log2 fold change” value is -0.0453.

Turning to RRIRHRPPRLPRPRPRPRFCPRP, the “shrunken log2 fold change” value was 0.0432.

As to RRIRERPPRLPRPRPRPEYAPRP, the “shrunken log2 fold change” value is -0.143.

With RRIRFRPPRLPRPRPRPLGQPRP, the “shrunken log2 fold change” value is -0.187.

Take RRIRNRPPRLPRPRPRPTWHPRP: the “shrunken log2 fold change” value was 0.0157.

Consider RRIRQRPPRLPRPRPRPMCDPRP, for which the “shrunken log2 fold change” value worked out at 0.00628.

Take RRIRTRPPRLPRPRPRPDQRPRP: the “shrunken log2 fold change” value was -0.0808.

RRIRRRPPRLPRPRPRPYMFPRP: the “shrunken log2 fold change” value was -0.448.

Take RRIRFRPPRLPRPRPRPSNDPRP: the “shrunken log2 fold change” value was -0.112.

As for RRIRSRPPRLPRPRPRPVHFPRP, the “shrunken log2 fold change” value was 0.0527.

As for RRIRPRPPRLPRPRPRPDRRPRP, the “shrunken log2 fold change” value came to 0.192.

For RRIRYRPPRLPRPRPRPVKCPRP, the “shrunken log2 fold change” value was -1.32.

With RRIRHRPPRLPRPRPRPIGVPRP, the “shrunken log2 fold change” value worked out at 0.148.

With RRIRWRPPRLPRPRPRPSLTPRP, the “shrunken log2 fold change” value came out at 0.282.

As to RRIRWRPPRLPRPRPRPCWPPRP, the “shrunken log2 fold change” value turned out to be 0.427.

In the case of RRIRKRPPRLPRPRPRPVLPPRP, the “shrunken log2 fold change” value is 0.338.

Consider RRIRLRPPRLPRPRPRPMRAPRP, for which the “shrunken log2 fold change” value came out at 0.862.

For the sequence RRIRERPPRLPRPRPRPEDRPRP, the “shrunken log2 fold change” value is -0.0523.

On to RRIRPRPPRLPRPRPRPEMRPRP, for which the “shrunken log2 fold change” value was 0.329.

As for RRIRERPPRLPRPRPRPVPRPRP, the “shrunken log2 fold change” value was 0.151.

With RRIRCRPPRLPRPRPRPNHYPRP, the “shrunken log2 fold change” value was -0.825.

As for RRIRKRPPRLPRPRPRPAKFPRP, the “shrunken log2 fold change” value was 0.602.

For RRIRERPPRLPRPRPRPKRKPRP, the “shrunken log2 fold change” value came out at 0.25.

For the sequence RRIRGRPPRLPRPRPRPNHAPRP, the “shrunken log2 fold change” value was -0.0738.

Take RRIRVRPPRLPRPRPRPKLQPRP: the “shrunken log2 fold change” value worked out at 0.32.

On to RRIRLRPPRLPRPRPRPTVDPRP, for which the “shrunken log2 fold change” value is -0.131.

RRIRERPPRLPRPRPRPEQGPRP: the “shrunken log2 fold change” value was found to be 0.0117.

For the sequence RRIRCRPPRLPRPRPRPHGSPRP, the “shrunken log2 fold change” value was -0.0281.

Source of the values: the supplement of paper PMC9112550, “Optimization of the antimicrobial peptide Bac7 by deep mutational scanning” (BMC Biology, 2022).
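Further: peptides expressed intracellularly from a pBAD plasmid library in pooled LB shake-flask culture, induced with 0.3% L-arabinose, DNA abundance read by NGS, three biological replicates, DESeq2 with apeglm shrinkage.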
